Here are results for one molecule from patent publication US20100291682, “SYSTEM FOR TRANSPOSING HYPERACTIVE RECOMBINANT DERIVATIVES OF MOS-1 TRANSPOSON” (published 2010).

Common to all, as to assay: cell_activity; 3T40 transposition in E. coli T5 vs 3T3/WT
Holding throughout (settings): chain copies: 2

One data set addresses T1, Mos-1 transposase FQ (Drosophila mauritiana, UniProt Q7JQ07 SEQ:1-345, F53Y,Q91R).
T1 sequence: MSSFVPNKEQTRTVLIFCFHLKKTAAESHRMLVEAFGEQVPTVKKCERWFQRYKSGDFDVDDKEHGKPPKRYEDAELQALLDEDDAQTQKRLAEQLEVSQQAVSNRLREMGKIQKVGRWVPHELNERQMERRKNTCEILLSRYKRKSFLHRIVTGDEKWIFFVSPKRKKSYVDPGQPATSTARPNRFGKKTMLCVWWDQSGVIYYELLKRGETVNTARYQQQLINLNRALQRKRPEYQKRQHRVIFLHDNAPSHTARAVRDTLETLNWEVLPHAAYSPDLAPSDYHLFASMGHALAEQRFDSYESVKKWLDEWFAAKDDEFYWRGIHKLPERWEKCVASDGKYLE
The method, then: (§1) Escherichia coli JM109 bacteria were co-transformed with the pBC 3T3 plasmid (comprising a transposition reporter 2 ITR 3′ mariner-like element and the chloramphenicol resistance gene) and with the inducible vector encoding for the transposase (pKK-Tnp or pMal-Tnp) comprising the ampicillin resistance gene. The bacteria selection was performed on ampicillin (100 μg/ml) and chloramphenicol in order to verify the presence of the two plasmids.
(§2) The JM109 bacteria containing both the pBC 3T3 plasmid and the pKK-Tnp (or pMalC2X-Tnp) plasmid were placed in culture for 1 hr at 37° C. in 250 μl of LB. This inoculum was then poured into 5 ml of LB supplemented with 1 mM IPTG. The culture was titrated on LB plates (100 μl of a 1/1000 dilution) and on LB-Tet plates (12.5 μg/ml) (250 μl of the non-diluted culture). The culture induced by IPTG was then cultured for 5 hours at 32° C. (optimal temperature of transposase) under stirring (250 rpm). The bacterial suspension was then titrated on LB plates (100 μl of a 1/250,000 dilution) and on LB-tet plates (100 μl of the undiluted bacterial suspension). The plates were placed at 37° C. overnight. The following day, the colonies were counted on LB and LB-Tet plates, and the transposition frequency (equal to the number of tetracycline bacteria over the number of bacterial per 1 ml of undiluted bacterial suspension) was calculated.
(§3) In order to evaluate the transposition efficiency of systems associating a hyperactive transposase and a pseudo-transposon that is also hyperactive, various combinations were tested in the transposition test in bacteria described in part I, paragraph I-B above.

The target of another data set is T2, Mos-1 transposase FTY (Drosophila mauritiana, UniProt Q7JQ07 SEQ:1-345, F53Y,T216A,Y237C).
T2 sequence: T1 sequence with R91Q, T216A, Y237C
The method, then:
as §1, §2, §3

The target of the next data set is T3, Mos-1 transposase FQET (Drosophila mauritiana, UniProt Q7JQ07 SEQ:1-345, F53Y,Q91R,E137K,T216A).
T3 sequence: T1 sequence with E137K, T216A
The method, then:
as §1, §2, §3

The target in a further data set is T4, Mos-1 transposase FT (Drosophila mauritiana, UniProt Q7JQ07 SEQ:1-345, F53Y,T216A).
T4 sequence: T1 sequence with R91Q, T216A
The method, then: as §1, §2, §3

Another data set addresses T5, Mos-1 transposase TY (Drosophila mauritiana, UniProt Q7JQ07 SEQ:1-345, T216A,Y237C).
T5 sequence: T1 sequence with Y53F, R91Q, T216A, Y237C
The method, then: as §1, §2, §3

Positions count from the first letter of the chain named.

B1: ITR40 (dsDNA)
DNA 1: TCAGGTGTACAAGTATGTAATGTCGTTA
DNA 2: TAACGACATTACATACTTGTACACCTGA
Regarding B1, the activity was 2.5 fold in the data set with Mos-1 transposase FQ; 2.4 fold in the data set with Mos-1 transposase FTY; 3.7 fold with Mos-1 transposase FQET; 2 fold in the data set with Mos-1 transposase FT; 36.2 fold with Mos-1 transposase TY.
